# Test results: PMC11259845, “Potent anti-coronaviral activity of pateamines and new insights into their mode of action”
# How the values were obtained:
# Details in all cases: protein: recombinant; tags: N-terminal 6xHis, thrombin site
# [1] = target: T1, eIF4A1(19-406) WT (human, UniProt P60842 19-406); test: thermal shift assay; PatA, AMP-PNP, 5 mM Mg2+; TSA: 5 uM eIF4A1(19-406), 50 uM RNA, 1 mM AMP-PNP, 100 uM inhibitor, 75 uM SYPRO Orange, 20 mM HEPES-KOH pH 7.5, 100 mM KCl, 5 mM MgCl2, 1 mM DTT, 10% glycerol; melt 10-95 C
# [2] = target: T1, eIF4A1(19-406) WT; test: thermal shift assay; silvestrol, AMP-PNP, 5 mM Mg2+; TSA: 5 uM eIF4A1(19-406), 50 uM RNA, 1 mM AMP-PNP, 100 uM inhibitor, 75 uM SYPRO Orange, 20 mM HEPES-KOH pH 7.5, 100 mM KCl, 5 mM MgCl2, 1 mM DTT, 10% glycerol; melt 10-95 C
# [3] = target: T1, eIF4A1(19-406) WT; test: thermal shift assay; DMDAPatA, AMP-PNP, 5 mM Mg2+; TSA: 5 uM eIF4A1(19-406), 50 uM RNA, 1 mM AMP-PNP, 100 uM inhibitor, 75 uM SYPRO Orange, 20 mM HEPES-KOH pH 7.5, 100 mM KCl, 5 mM MgCl2, 1 mM DTT, 10% glycerol; melt 10-95 C
# T1 sequence (P60842 19-406): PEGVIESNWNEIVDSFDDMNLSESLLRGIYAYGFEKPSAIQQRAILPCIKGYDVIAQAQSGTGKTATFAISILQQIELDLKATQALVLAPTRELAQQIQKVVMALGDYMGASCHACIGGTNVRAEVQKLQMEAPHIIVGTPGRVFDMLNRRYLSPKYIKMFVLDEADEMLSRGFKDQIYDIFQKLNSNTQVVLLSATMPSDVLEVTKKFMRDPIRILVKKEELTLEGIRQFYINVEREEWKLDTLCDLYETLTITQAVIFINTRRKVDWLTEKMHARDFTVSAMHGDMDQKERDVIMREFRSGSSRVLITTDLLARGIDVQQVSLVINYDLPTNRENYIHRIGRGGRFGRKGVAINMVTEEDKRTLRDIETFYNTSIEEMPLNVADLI
Binder,binding result [1],binding result [2],binding result [3]
GAGAGAGAGA (ssRNA) [(GA)5],binds,binds,–
AGAGAGAGAG (ssRNA) [(AG)5],binds,binds,–
UGUGUGUGUG (ssRNA) [(UG)5],binds,–,binds
